Fewer inactive variants are shown than the library holds.
Experiments:
biotinyl-Phe-oxazolone = experiment: self-aminoacylation, catalytic enhancement (BFO) (fold over background); higher = more active; k-Seq, kA / k0A0; sequences stand for … in GGGAAUGGAUCCACAUCUACGAAUUC…UUCACUGCAGACUUGACGAAGCUG
Summary of the method: (§1)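 Catalytic enhancement equals the median kA over the uncatalyzed rate, the latter read from the low-activity peak of a bimodal Gaussian fit. Values of kA came from fitting each sequence's fraction reacted to a pseudo-first-order model, with 1000 bootstraps. Reacted RNA was captured with streptavidin and quantified by triplicate qPCR and Illumina sequencing after 90 minutes at room temperature with 2–1250 μM biotinyl-aminoacyl-oxazolone and 0.43 μM mutagenized RNA pools bearing a 21-nt variable region.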

biotinyl-Ile-oxazolone = experiment: self-aminoacylation, catalytic enhancement (BIO) (fold over background); higher = more active; k-Seq, kA / k0A0; sequences stand for … in GGGAAUGGAUCCACAUCUACGAAUUC…UUCACUGCAGACUUGACGAAGCUG
Summary of the method: as §1

biotinyl-Met-oxazolone = experiment: self-aminoacylation, catalytic enhancement (BMO) (fold over background); higher = more active; k-Seq, kA / k0A0; sequences stand for … in GGGAAUGGAUCCACAUCUACGAAUUC…UUCACUGCAGACUUGACGAAGCUG
Summary of the method: as §1

biotinyl-Val-oxazolone = experiment: self-aminoacylation, catalytic enhancement (BVO) (fold over background); higher = more active; k-Seq, kA / k0A0; sequences stand for … in GGGAAUGGAUCCACAUCUACGAAUUC…UUCACUGCAGACUUGACGAAGCUG
Summary of the method: as §1

biotinyl-Leu-oxazolone = experiment: self-aminoacylation, catalytic enhancement (BLO) (fold over background); higher = more active; k-Seq, kA / k0A0; sequences stand for … in GGGAAUGGAUCCACAUCUACGAAUUC…UUCACUGCAGACUUGACGAAGCUG
Summary of the method: as §1

biotinyl-Trp-oxazolone = experiment: self-aminoacylation, catalytic enhancement (BWO) (fold over background); higher = more active; k-Seq, kA / k0A0; sequences stand for … in GGGAAUGGAUCCACAUCUACGAAUUC…UUCACUGCAGACUUGACGAAGCUG
Summary of the method: as §1

CCACACUUCAAGGAAUCGGUA [Fam1B.1 aminoacylation ribozyme variant]
self-aminoacylation (biotinyl-Phe-oxazolone): 0.499 | self-aminoacylation (biotinyl-Ile-oxazolone): 1.26 | self-aminoacylation (biotinyl-Met-oxazolone): 1 | self-aminoacylation (biotinyl-Val-oxazolone): 1.18 | self-aminoacylation (biotinyl-Leu-oxazolone): 1.23 | self-aminoacylation (biotinyl-Trp-oxazolone): 0.902

CCACACUUCAAGGUAUCGGUC [Fam1B.1 aminoacylation ribozyme variant]
self-aminoacylation (biotinyl-Phe-oxazolone): 0.829 | self-aminoacylation (biotinyl-Ile-oxazolone): 0.941 | self-aminoacylation (biotinyl-Met-oxazolone): 0.95 | self-aminoacylation (biotinyl-Val-oxazolone): 0.995 | self-aminoacylation (biotinyl-Leu-oxazolone): 0.907 | self-aminoacylation (biotinyl-Trp-oxazolone): 1.28

CCACACUUCAAGUCAUCGGUC [Fam1B.1 aminoacylation ribozyme variant]
self-aminoacylation (biotinyl-Phe-oxazolone): 0.991 | self-aminoacylation (biotinyl-Ile-oxazolone): 1.05 | self-aminoacylation (biotinyl-Met-oxazolone): 1.04 | self-aminoacylation (biotinyl-Val-oxazolone): 1.32 | self-aminoacylation (biotinyl-Leu-oxazolone): 1.31 | self-aminoacylation (biotinyl-Trp-oxazolone): 0.698

CCACACUUCAAUCAAUAGGUC [Fam1B.1 aminoacylation ribozyme variant]
self-aminoacylation (biotinyl-Phe-oxazolone): 1.11 | self-aminoacylation (biotinyl-Ile-oxazolone): 0.573 | self-aminoacylation (biotinyl-Met-oxazolone): 0.569 | self-aminoacylation (biotinyl-Val-oxazolone): 0.646 | self-aminoacylation (biotinyl-Leu-oxazolone): 0.517 | self-aminoacylation (biotinyl-Trp-oxazolone): 0.511

CCACACUUCAAUCAAUCGGUA [Fam1B.1 aminoacylation ribozyme variant]
self-aminoacylation (biotinyl-Phe-oxazolone): 0.825 | self-aminoacylation (biotinyl-Ile-oxazolone): 0.79 | self-aminoacylation (biotinyl-Met-oxazolone): 0.749 | self-aminoacylation (biotinyl-Val-oxazolone): 0.849 | self-aminoacylation (biotinyl-Leu-oxazolone): 0.609 | self-aminoacylation (biotinyl-Trp-oxazolone): 0.739

CCACACUUCAAUCAAUCGGUU [Fam1B.1 aminoacylation ribozyme variant]
self-aminoacylation (biotinyl-Phe-oxazolone): 7.61 | self-aminoacylation (biotinyl-Ile-oxazolone): 1.47 | self-aminoacylation (biotinyl-Met-oxazolone): 1.16 | self-aminoacylation (biotinyl-Val-oxazolone): 1.21 | self-aminoacylation (biotinyl-Leu-oxazolone): 1.34 | self-aminoacylation (biotinyl-Trp-oxazolone): 5.87

CCACACUUCACGCAAACGGUC [Fam1B.1 aminoacylation ribozyme variant]
self-aminoacylation (biotinyl-Phe-oxazolone): 0.827 | self-aminoacylation (biotinyl-Ile-oxazolone): 0.736 | self-aminoacylation (biotinyl-Met-oxazolone): 0.793 | self-aminoacylation (biotinyl-Val-oxazolone): 0.995 | self-aminoacylation (biotinyl-Leu-oxazolone): 0.861 | self-aminoacylation (biotinyl-Trp-oxazolone): 0.98

CCACACUUCACGCAACCGGUC [Fam1B.1 aminoacylation ribozyme variant]
self-aminoacylation (biotinyl-Phe-oxazolone): 0.978 | self-aminoacylation (biotinyl-Ile-oxazolone): 1.24 | self-aminoacylation (biotinyl-Met-oxazolone): 1.21 | self-aminoacylation (biotinyl-Val-oxazolone): 1.55 | self-aminoacylation (biotinyl-Leu-oxazolone): 1.55 | self-aminoacylation (biotinyl-Trp-oxazolone): 0.831

CCACACUUCACGCAAUCGGUU [Fam1B.1 aminoacylation ribozyme variant]
self-aminoacylation (biotinyl-Phe-oxazolone): 0.906 | self-aminoacylation (biotinyl-Ile-oxazolone): 1.76 | self-aminoacylation (biotinyl-Met-oxazolone): 2.01 | self-aminoacylation (biotinyl-Val-oxazolone): 1.92 | self-aminoacylation (biotinyl-Leu-oxazolone): 1.95 | self-aminoacylation (biotinyl-Trp-oxazolone): 1.45

CCACACUUCAGGCAAUCGAUC [Fam1B.1 aminoacylation ribozyme variant]
self-aminoacylation (biotinyl-Phe-oxazolone): 0.731 | self-aminoacylation (biotinyl-Ile-oxazolone): 0.813 | self-aminoacylation (biotinyl-Met-oxazolone): 0.634 | self-aminoacylation (biotinyl-Val-oxazolone): 0.892 | self-aminoacylation (biotinyl-Leu-oxazolone): 0.591 | self-aminoacylation (biotinyl-Trp-oxazolone): 0.804

CCACACUUCAUGCAAUCGCUC [Fam1B.1 aminoacylation ribozyme variant]
self-aminoacylation (biotinyl-Phe-oxazolone): 0.603 | self-aminoacylation (biotinyl-Ile-oxazolone): 0.99 | self-aminoacylation (biotinyl-Met-oxazolone): 1.36 | self-aminoacylation (biotinyl-Val-oxazolone): 1.06 | self-aminoacylation (biotinyl-Leu-oxazolone): 1.1 | self-aminoacylation (biotinyl-Trp-oxazolone): 0.588

CCACACUUCAUGCAAUCGGGC [Fam1B.1 aminoacylation ribozyme variant]
self-aminoacylation (biotinyl-Phe-oxazolone): 0.961 | self-aminoacylation (biotinyl-Ile-oxazolone): 1.86 | self-aminoacylation (biotinyl-Met-oxazolone): 1.25 | self-aminoacylation (biotinyl-Val-oxazolone): 1.84 | self-aminoacylation (biotinyl-Leu-oxazolone): 1.38 | self-aminoacylation (biotinyl-Trp-oxazolone): 1.77

CCACACUUCAUGCAAUCGUUC [Fam1B.1 aminoacylation ribozyme variant]
self-aminoacylation (biotinyl-Phe-oxazolone): 0.835 | self-aminoacylation (biotinyl-Ile-oxazolone): 0.737 | self-aminoacylation (biotinyl-Met-oxazolone): 0.566 | self-aminoacylation (biotinyl-Val-oxazolone): 0.699 | self-aminoacylation (biotinyl-Leu-oxazolone): 0.513 | self-aminoacylation (biotinyl-Trp-oxazolone): 0.373

CCACACUUCAUGCAAUGGGUC [Fam1B.1 aminoacylation ribozyme variant]
self-aminoacylation (biotinyl-Phe-oxazolone): 0.544 | self-aminoacylation (biotinyl-Ile-oxazolone): 0.751 | self-aminoacylation (biotinyl-Met-oxazolone): 0.738 | self-aminoacylation (biotinyl-Val-oxazolone): 0.712 | self-aminoacylation (biotinyl-Leu-oxazolone): 0.704 | self-aminoacylation (biotinyl-Trp-oxazolone): 0.569

CCACACUUCCAGAAAUCGGUC [Fam1B.1 aminoacylation ribozyme variant]
self-aminoacylation (biotinyl-Phe-oxazolone): 1.69 | self-aminoacylation (biotinyl-Ile-oxazolone): 0.933 | self-aminoacylation (biotinyl-Met-oxazolone): 0.808 | self-aminoacylation (biotinyl-Val-oxazolone): 1.06 | self-aminoacylation (biotinyl-Leu-oxazolone): 1.13 | self-aminoacylation (biotinyl-Trp-oxazolone): 0.976

CCACACUUCCAGCAAUCGGCC [Fam1B.1 aminoacylation ribozyme variant]
self-aminoacylation (biotinyl-Phe-oxazolone): 3.34 | self-aminoacylation (biotinyl-Ile-oxazolone): 3.06 | self-aminoacylation (biotinyl-Met-oxazolone): 2.08 | self-aminoacylation (biotinyl-Val-oxazolone): 4.01 | self-aminoacylation (biotinyl-Leu-oxazolone): 2.42 | self-aminoacylation (biotinyl-Trp-oxazolone): 4.06

CCACACUUCGAGCAAACGGUC [Fam1B.1 aminoacylation ribozyme variant]
self-aminoacylation (biotinyl-Phe-oxazolone): 0.648 | self-aminoacylation (biotinyl-Ile-oxazolone): 0.678 | self-aminoacylation (biotinyl-Met-oxazolone): 0.663 | self-aminoacylation (biotinyl-Val-oxazolone): 0.655 | self-aminoacylation (biotinyl-Leu-oxazolone): 0.632 | self-aminoacylation (biotinyl-Trp-oxazolone): 0.57

CCACACUUCGAGCAAGCGGUC [Fam1B.1 aminoacylation ribozyme variant]
self-aminoacylation (biotinyl-Phe-oxazolone): 0.487 | self-aminoacylation (biotinyl-Ile-oxazolone): 0.864 | self-aminoacylation (biotinyl-Met-oxazolone): 0.927 | self-aminoacylation (biotinyl-Val-oxazolone): 1.19 | self-aminoacylation (biotinyl-Leu-oxazolone): 0.874 | self-aminoacylation (biotinyl-Trp-oxazolone): 0.82

CCACACUUCGAGCAAUCAGUC [Fam1B.1 aminoacylation ribozyme variant]
self-aminoacylation (biotinyl-Phe-oxazolone): 0.892 | self-aminoacylation (biotinyl-Ile-oxazolone): 0.666 | self-aminoacylation (biotinyl-Met-oxazolone): 0.488 | self-aminoacylation (biotinyl-Val-oxazolone): 0.625 | self-aminoacylation (biotinyl-Leu-oxazolone): 0.52 | self-aminoacylation (biotinyl-Trp-oxazolone): 0.695

CCACACUUCGAGCAAUCGGCC [Fam1B.1 aminoacylation ribozyme variant]
self-aminoacylation (biotinyl-Phe-oxazolone): 7.13 | self-aminoacylation (biotinyl-Ile-oxazolone): 1.64 | self-aminoacylation (biotinyl-Met-oxazolone): 1.61 | self-aminoacylation (biotinyl-Val-oxazolone): 2.77 | self-aminoacylation (biotinyl-Leu-oxazolone): 1.94 | self-aminoacylation (biotinyl-Trp-oxazolone): 2.11

CCACACUUCGAGCAUUCGGUC [Fam1B.1 aminoacylation ribozyme variant]
self-aminoacylation (biotinyl-Phe-oxazolone): 1.18 | self-aminoacylation (biotinyl-Ile-oxazolone): 1.97 | self-aminoacylation (biotinyl-Met-oxazolone): 1.67 | self-aminoacylation (biotinyl-Val-oxazolone): 2.2 | self-aminoacylation (biotinyl-Leu-oxazolone): 1.72 | self-aminoacylation (biotinyl-Trp-oxazolone): 1.54

CCACACUUCGAGCGAUCGGUC [Fam1B.1 aminoacylation ribozyme variant]
self-aminoacylation (biotinyl-Phe-oxazolone): 2.95 | self-aminoacylation (biotinyl-Ile-oxazolone): 1.43 | self-aminoacylation (biotinyl-Met-oxazolone): 1.64 | self-aminoacylation (biotinyl-Val-oxazolone): 1.69 | self-aminoacylation (biotinyl-Leu-oxazolone): 1.86 | self-aminoacylation (biotinyl-Trp-oxazolone): 1.38

CCACACUUCUAGCAACCGGUC [Fam1B.1 aminoacylation ribozyme variant]
self-aminoacylation (biotinyl-Phe-oxazolone): 0.818 | self-aminoacylation (biotinyl-Ile-oxazolone): 0.817 | self-aminoacylation (biotinyl-Met-oxazolone): 0.681 | self-aminoacylation (biotinyl-Val-oxazolone): 0.946 | self-aminoacylation (biotinyl-Leu-oxazolone): 0.868 | self-aminoacylation (biotinyl-Trp-oxazolone): 0.402

CCACACUUCUAGCAAUCAGUC [Fam1B.1 aminoacylation ribozyme variant]
self-aminoacylation (biotinyl-Phe-oxazolone): 1.14 | self-aminoacylation (biotinyl-Ile-oxazolone): 0.797 | self-aminoacylation (biotinyl-Met-oxazolone): 0.648 | self-aminoacylation (biotinyl-Val-oxazolone): 0.721 | self-aminoacylation (biotinyl-Leu-oxazolone): 0.622 | self-aminoacylation (biotinyl-Trp-oxazolone): 0.459

CCACACUUCUAGCAAUCUGUC [Fam1B.1 aminoacylation ribozyme variant]
self-aminoacylation (biotinyl-Phe-oxazolone): 0.693 | self-aminoacylation (biotinyl-Ile-oxazolone): 0.424 | self-aminoacylation (biotinyl-Met-oxazolone): 0.378 | self-aminoacylation (biotinyl-Val-oxazolone): 0.502 | self-aminoacylation (biotinyl-Leu-oxazolone): 0.354 | self-aminoacylation (biotinyl-Trp-oxazolone): 0.292

— the supplement of paper PMC9233669
